The chains are these.
T1: HCoV-HKU1 recombinant soluble S ectodomain protein (prefusion-stabilized trimer) (HCoV-HKU1)
T1 chain: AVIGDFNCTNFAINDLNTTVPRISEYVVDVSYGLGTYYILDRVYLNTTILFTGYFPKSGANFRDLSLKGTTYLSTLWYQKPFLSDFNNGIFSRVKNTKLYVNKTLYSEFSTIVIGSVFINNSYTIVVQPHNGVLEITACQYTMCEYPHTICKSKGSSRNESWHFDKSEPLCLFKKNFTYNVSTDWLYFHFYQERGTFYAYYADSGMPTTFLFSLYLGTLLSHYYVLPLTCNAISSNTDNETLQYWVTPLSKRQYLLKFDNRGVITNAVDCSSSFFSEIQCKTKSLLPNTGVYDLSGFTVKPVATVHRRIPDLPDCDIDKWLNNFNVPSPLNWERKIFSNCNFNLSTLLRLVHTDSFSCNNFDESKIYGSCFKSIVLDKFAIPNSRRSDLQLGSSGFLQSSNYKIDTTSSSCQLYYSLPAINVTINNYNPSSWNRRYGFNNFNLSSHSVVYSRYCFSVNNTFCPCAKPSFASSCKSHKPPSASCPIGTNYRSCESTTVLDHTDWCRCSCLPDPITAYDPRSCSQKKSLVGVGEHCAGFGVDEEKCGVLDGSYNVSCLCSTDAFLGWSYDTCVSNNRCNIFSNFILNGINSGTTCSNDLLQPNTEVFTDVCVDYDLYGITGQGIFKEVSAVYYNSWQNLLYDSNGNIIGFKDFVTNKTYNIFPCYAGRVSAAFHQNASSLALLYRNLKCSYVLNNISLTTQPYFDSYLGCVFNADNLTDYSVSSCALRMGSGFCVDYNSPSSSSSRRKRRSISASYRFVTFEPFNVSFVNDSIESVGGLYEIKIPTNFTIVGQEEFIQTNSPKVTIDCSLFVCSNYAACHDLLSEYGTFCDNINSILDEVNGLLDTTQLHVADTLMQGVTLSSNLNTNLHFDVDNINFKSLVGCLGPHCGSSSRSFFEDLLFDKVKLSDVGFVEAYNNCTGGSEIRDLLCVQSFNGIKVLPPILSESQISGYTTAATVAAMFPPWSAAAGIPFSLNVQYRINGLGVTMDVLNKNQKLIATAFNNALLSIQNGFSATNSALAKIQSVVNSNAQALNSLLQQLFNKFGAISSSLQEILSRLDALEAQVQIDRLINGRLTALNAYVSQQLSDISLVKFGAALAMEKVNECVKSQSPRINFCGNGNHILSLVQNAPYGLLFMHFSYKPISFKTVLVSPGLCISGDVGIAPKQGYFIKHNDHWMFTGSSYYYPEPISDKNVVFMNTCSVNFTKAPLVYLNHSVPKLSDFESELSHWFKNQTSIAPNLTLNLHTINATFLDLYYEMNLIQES

B1: Fab CC9.3 (Fab, V domains shown)
VH: QVQLQESGPGLVKPSETLSLTCTVSGGSIRSDFWSWIRQFPGKGLEWIGYIYYSGSTNYNPSLESRVTISVDTSKNEFSLKLNYVTAADTAIYYCARETRWNWLDSWGQGTLVTVSS
VL: DIVMTQSPDSLAVSLGERASINCKSSQTISYISNNKNYLAWYQQKPGQPPRLLIYWASTRESGVPDRFSGGGFGTDFTLTISSLQAEDVAVYYCQQYFNTPWTFGQGTKVEIK
B2: CC9.3 (IgG) (antibody, V domains shown)
VH: B1 VH
VL: B1 VL
B3: Fab CC9.2 (Fab, V domains shown)
VH: EVQLVESGGGLVQPGRSLRLSCVAPGFTLGGYGMHWVRQAPGKGLEWVGLISYDGSVQKYGSSVKGRFTISKDNSKNTLYLEMNSLRADDTAVYFCVKGASLGDNWGQGTLVTVSS
VL: EIVMTQSPLSLPVTLGQPASISCRSSQSLVYSDGDTYMSWFHQRPGQSPRRLIYKVSNRDFGVPDRFSGSGSGTDFTLKISRVEAEDVGVYYCMQGTHWPYTFGPGTKVEIK
B4: CC9.2 (IgG) (antibody, V domains shown)
VH: B3 VH
VL: B3 VL
B5: Fab CC40.8 (Fab, V domains shown)
VH: EVQLLESGGGLVQPGGSLRLSCAASGFTFSSYVMTWARQAPGKGLEWVSAISGTGYTYYADSVKGRFTVSRDNSKNTLFLQMSSLRAEDTAVYYCAITMAPVVWGQGTTVTVSS
VL: SYELTQPPSVSVSPGQTARITCSGDALPKRYAYWYQQKSGQAPILVIYEDKKRPSGIPERLSGSKSGTVATLTISGAQVEDEADYYCYSTDSSGNHAVFGGGTQLTVL
B6: CC40.8 (IgG) (antibody, V domains shown)
VH: B5 VH
VL: B5 VL
B7: CC9.3 IgG (antibody, V domains shown)
VH: B1 VH
VL: B1 VL
B8: CC9.3 Fab (Fab, V domains shown)
VH: B1 VH
VL: B1 VL
B9: CC9.2 IgG (antibody, V domains shown)
VH: B3 VH
VL: B3 VL
B10: CC9.2 Fab (Fab, V domains shown)
VH: B3 VH
VL: B3 VL
B11: CC40.8 IgG (antibody, V domains shown)
VH: B5 VH
VL: B5 VL
B12: CC40.8 Fab (Fab, V domains shown)
VH: B5 VH
VL: B5 VL

For the first assay, the target named is T1, HCoV-HKU1 recombinant soluble S …. As to the kind of experiment: BLI.
For the molecule B1, the dissociation constant Kd was under 1 nM.

As to B2, the dissociation constant Kd was under 1 nM.

For B3, the dissociation constant (Kd) is under 1 nM.

B4: the Kd is under 1 nM.

Turning to B5, the Kd is under 1 nM.

With B6, the dissociation constant (Kd) is under 1 nM.

The next assay concerns the target SARS-CoV-2 S (SARS-CoV-2, UniProt P0DTC2 1-1208). In words: BLI.
In turn, B7 registered a Kd of 2 nM.

For B8, the affinity, expressed as Kd, was 112 nM.

On to B9, for which binding was put at a Kd of 16 nM.

Consider B10, for which binding was put at a Kd of 1680 nM.

As to B11, the Kd is 1 nM.

The molecule B12 came in with a Kd of 5 nM.

The record behind these values is patent US20240182551A1 (published 2024).
